# “Also recorded” adds a separate entry of the source. Where a SMILES comes first, the peptide text is derived from it. Where no end group is shown, it is not given here.
# Legend:
# [1] = biological target: T1, endogenous PTH1R (Homo sapiens, UniProt Q03431); experiment: Ligand-stimulated cAMP accumulation in SaOS-2 cells; assay type: cell-based
# T1 construct: SaOS-2 cells expressing the wild-type PTH1R endogenously; endogenous in cells; host or cells: SaOS-2 human osteosarcoma cells
# T1 sequence (Q03431 27-593): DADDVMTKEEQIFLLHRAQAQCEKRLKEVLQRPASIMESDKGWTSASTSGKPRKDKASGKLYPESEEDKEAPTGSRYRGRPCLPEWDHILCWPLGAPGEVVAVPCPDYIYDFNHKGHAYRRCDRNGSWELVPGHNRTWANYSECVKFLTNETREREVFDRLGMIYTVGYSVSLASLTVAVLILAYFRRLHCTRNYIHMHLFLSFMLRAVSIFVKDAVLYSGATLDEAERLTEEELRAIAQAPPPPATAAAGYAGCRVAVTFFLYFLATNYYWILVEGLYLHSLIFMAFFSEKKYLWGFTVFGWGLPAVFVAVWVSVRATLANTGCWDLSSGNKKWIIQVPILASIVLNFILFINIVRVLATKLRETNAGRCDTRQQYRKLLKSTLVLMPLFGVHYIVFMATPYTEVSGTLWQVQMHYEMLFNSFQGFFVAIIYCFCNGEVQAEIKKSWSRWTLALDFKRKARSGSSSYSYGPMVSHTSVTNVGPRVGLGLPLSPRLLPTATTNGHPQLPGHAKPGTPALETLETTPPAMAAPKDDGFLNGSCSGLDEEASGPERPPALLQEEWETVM
# Protocol: (§1) DMEM, Trypsin/EDTA, and penicillin G/streptomycin and horse serum were from Gibco/BRL, Life Technologies, Gaithersburg, Md. LLC-PK, expressing the recombinant human PTH1R (HKrk-B7 cells) and SaOS-2 cells expressing the wild-type PTH1R endogenously were cultured in DMEM supplemented with 10% heat-inactivated fetal bovine serum, 100 U/ml penicillin, 100 μg/ml streptomycin, as previously described (Gardella, T. J., et al., J. Biol. Chem. 271:19888-19893 (1996); Fukayama, S., et al., Endocrinology 134:1851-1858 (1994)); both cell lines were maintained in a humidified atmosphere containing 95% air and 5% CO2. After seeding, medium was replaced daily, until cells were used for radioligand binding or cAMP accumulation assays.
# Na^125I (specific activity: 2,000 Ci/mmol) was purchased from DuPont/NEN, Boston, Mass. Fetal bovine serum, 3-isobutyl-1-methyl-xanthine (IBMX), and BSA were from Sigma, St. Louis, Mo., and trifluoroacetic acid (TFA) was from Pierce, Rockford, Ill. Radiolabeled rPTH(1-34) and PTHrP(1-36) were prepared by the chloramine-T method, followed by HPLC purification using a 30-50% ACN/0.1% TFA gradient over 30 minutes; radioreceptor assays were performed in 24-well plates as previously described (Gardella, T. J., et al., J. Biol. Chem. 271:19888-19893 (1996); Fukayama, S. et al., Endocrinology 134:1851-1858 (1994)). In brief, each well (final volume 500 μl) contained binding buffer (BB; 50 mM Tris-HCl (pH 7.7), 100 mM NaCl, 5 mM KCl, 2 mM CaCl2, 5% heat-inactivated horse serum, and 0.5% heat-inactivated fetal bovine serum), the ^125I-labeled PTH or PTHrP analog (100,000 to 200,000 cpm) was incubated in the absence or presence of increasing concentrations of unlabeled peptides. […] The entire lysate was counted for γ-irradiation. Specific binding was determined after subtracting radioactivity bound in the presence of maximal concentrations of unlabeled competing peptide (10^−6 M). […] Data were analyzed and graphically illustrated using the graph-pad prism software package. […]
# [2] = biological target: T2, PTH1R (Homo sapiens, UniProt Q03431); experiment: Radioreceptor binding assay with HKrk-B7 cells; set-up: expressed in transfected cells
# T2 sequence (Q03431 27-593): T1 sequence (Q03431 27-593)
# Protocol: as §1
# (§2) Na^125I (specific activity: 2,000 Ci/mmol) was purchased from DuPont/NEN, Boston, Mass. Fetal bovine serum, 3-isobutyl-1-methyl-xanthine (IBMX), and BSA were from Sigma, St. Louis, Mo., and trifluoroacetic acid (TFA) was from Pierce, Rockford, Ill. Radiolabeled rPTH(1-34) and PTHrP(1-36) were prepared by the chloramine-T method, followed by HPLC purification using a 30-50% ACN/0.1% TFA gradient over 30 minutes; radioreceptor assays were performed in 24-well plates as previously described (Gardella, T. J., et al., J. Biol. Chem. 271:19888-19893 (1996); Fukayama, S. et al., Endocrinology 134:1851-1858 (1994)). In brief, each well (final volume 500 μl) contained binding buffer (BB; 50 mM Tris-HCl (pH 7.7), 100 mM NaCl, 5 mM KCl, 2 mM CaCl2, 5% heat-inactivated horse serum, and 0.5% heat-inactivated fetal bovine serum), the ^125I-labeled PTH or PTHrP analog (100,000 to 200,000 cpm) was incubated in the absence or presence of increasing concentrations of unlabeled peptides. After 4 h at 16° C., buffer was completely removed, the cells were rinsed with cold BB and lysed with 1 M NaOH. The entire lysate was counted for γ-irradiation. Specific binding was determined after subtracting radioactivity bound in the presence of maximal concentrations of unlabeled competing peptide (10^−6 M). Agonist-dependent stimulation of cAMP accumulation by HKrk-B7 and SaOS-2 cells (48-well plates; stimulation at room temperature for 45 minutes) and the subsequent measurement of cAMP by radioimmunoassay was performed as previously described (Gardella, T. J., et al., J. Biol. Chem. 271:19888-19893 (1996); Bergwitz, C., et al., Endocrinology 139:723-732 (1998)). Data were analyzed and graphically illustrated using the graph-pad prism software package.
# The binding properties of these peptides were evaluated in radioreceptor assays with HKrk-B7 cells, which express the PTH IR at high density (approximately […]) (Carter, P. H., et al., Endocrinology 140:4972-4981 (1999)), using either radiolabeled rPTH(1-34) or PTHrP(1-36).
# The calculated IC50 values (mean±SE) are derived from at least three independent experiments.
# [3] = biological target: T2, PTH1R; experiment: Ligand-stimulated cAMP accumulation in HKrk-B7 cells; assay type: cell-based; set-up: expressed in transfected cells
# Protocol: as §1, §2
# The values for EC50 and Vmax (mean±SE) are derived from at least three independent experiments.
# [4] = biological target: T3, human PTH/PTHrP receptor (PTH1R) (human, UniProt Q03431 27-593); experiment: cell-based or functional assay
# T3 sequence (looked up): T1 sequence (Q03431 27-593)
# [5] = biological target: T3, human PTH/PTHrP receptor (PTH1R); experiment: radioreceptor competition on HKrk-B7 cells; tracer 125I-[Tyr36]PTHrP(1-36)amide
# Protocol: (§3) Na¹²⁵I (specific activity: 2,000 Ci/mmol) was purchased from DuPont/NEN, Boston, Mass. Fetal bovine serum, 3-isobutyl-1-methyl-xanthine (IBMX), and BSA were from Sigma, St. Louis, Mo., and trifluoroacetic acid (TFA) was from Pierce, Rockford, Ill. […] After 4 h at 16° C., buffer was completely removed, the cells were rinsed with cold BB and lysed with 1 M NaOH. The entire lysate was counted for γ-irradiation. Specific binding was determined after subtracting radioactivity bound in the presence of maximal concentrations of unlabeled competing peptide (10⁻⁶ M). Agonist-dependent stimulation of cAMP accumulation by HKrk-B7 and SaOS-2 cells (48-well plates; stimulation at room temperature for 45 minutes) and the subsequent measurement of cAMP by radioimmunoassay was performed as previously described (Gardella, T. J., et al., J. Biol. Chem. 271:19888-19893 (1996); Bergwitz, C., et al., Endocrinology 139:723-732 (1998)). Data were analyzed and graphically illustrated using the graph-pad prism software package.
# [6] = biological target: T3, human PTH/PTHrP receptor (PTH1R); experiment: radioreceptor competition on HKrk-B7 cells; tracer 125I-rat [Nle8,21,Tyr34]PTH(1-34)amide
# Protocol: as §3
# [7] = maximal cAMP accumulation, mean±SE
molecule,measurement,setting,value
CC[C@H](C)[C@H](NC(=O)[C@H](CO)NC(=O)[C@H](CCCCN)NC(=O)CNC(=O)[C@H](CCCCN)NC(=O)[C@H](CC(=O)O)NC(=O)[C@H](Cc1c[nH]cn1)NC(=O)[C@H](CC(C)C)NC(=O)[C@H](CC(C)C)NC(=O)[C@H](CCC(N)=O)NC(=O)[C@H](Cc1c[nH]cn1)NC(=O)[C@H](CCC(=O)O)NC(=O)[C@H](CO)NC(=O)[C@@H](NC(=O)[C@H](C)N)C(C)C)C(=O)N[C@@H](CCC(N)=O)C(=O)N[C@@H](CC(=O)O)C(=O)N[C@@H](CC(C)C)C(=O)N[C@@H](CCCNC(=N)N)C(=O)N[C@@H](CCCNC(=N)N)C(=O)N[C@@H](CCCNC(=N)N)C(=O)N[C@@H](Cc1c[nH]cn1)C(=O)N[C@@H](Cc1c[nH]c2ccccc12)C(=O)N[C@@H](CC(C)C)C(=O)N[C@@H](CC(N)=O)C(=O)N[C@@H](CO)C(=O)N[C@@H](Cc1ccc(O)cc1)C(=O)N[C@@H](CCSC)C(=O)N[C@@H](Cc1c[nH]cn1)C(=O)N[C@@H](CCCCN)C(=O)N[C@@H](CC(C)C)C(=O)N[C@@H](CC(C)C)C(=O)N[C@H](C(=O)N[C@@H](CC(C)C)C(=O)N[C@@H](CC(=O)O)C(=O)N[C@@H](C)C(=O)N1CCC[C@H]1C(N)=O)C(C)C [PTHrP(1-20)/TIP(23-39)] (H-AVSEHQLLHDKGKSIQDLRRRHWLNSYMHKLLVLDAP-NH2),Vmax (efficacy) of cAMP accumulation,[1]; SaOS-2 cells,31±3 pmol/well
same,SaOS-2 Maxobs,[1]; [7],31 ± 3 pmol/48-well
same,binding affinity higher than that of PTHrP(1-36),[2],2- to 4 fold
same,binding affinity weaker than that of PTH(1-34),[2],3- to 4 fold
same,improvement in apparent binding affinity (IC50) relative to TIP(1-39),[2]; either radioligand,8- to 19 fold
same,Vmax (efficacy) of cAMP accumulation,[3]; HKrk-B7 cells,39±8 pmol/well
same,stimulation of cAMP accumulation at the PTH1R (in words),[3]; HKrk-B7 cells,full and potent agonist
same,HKrk-B7 Maxobs,[3]; [7],39 ± 8 pmol/48-well
CSCC[C@H](NC(=O)[C@H](Cc1ccc(O)cc1)NC(=O)[C@H](CO)NC(=O)[C@H](CC(N)=O)NC(=O)[C@H](CC(C)C)NC(=O)[C@H](Cc1c[nH]c2ccccc12)NC(=O)[C@H](Cc1c[nH]cn1)NC(=O)[C@H](CCCNC(=N)N)NC(=O)[C@H](CCCNC(=N)N)NC(=O)[C@H](CCC(=O)O)NC(=O)[C@H](CC(C)C)NC(=O)[C@H](C)NC(=O)[C@H](C)NC(=O)[C@H](CC(C)C)NC(=O)[C@H](CC(C)C)NC(=O)[C@H](CCCNC(=N)N)NC(=O)[C@H](C)NC(=O)[C@H](CCCNC(=N)N)NC(=O)[C@H](CCC(=O)O)NC(=O)[C@H](CCCNC(=N)N)NC(=O)[C@H](Cc1ccccc1)NC(=O)[C@H](C)NC(=O)[C@H](C)NC(=O)[C@H](CC(=O)O)NC(=O)[C@H](CC(=O)O)NC(=O)[C@H](C)NC(=O)[C@H](CC(C)C)NC(=O)[C@H](C)N)C(=O)N[C@@H](Cc1c[nH]cn1)C(=O)N[C@@H](CCCCN)C(=O)N[C@@H](CC(C)C)C(=O)N[C@@H](CC(C)C)C(=O)N[C@H](C(=O)N[C@@H](CC(C)C)C(=O)N[C@@H](CC(=O)O)C(=O)N[C@@H](C)C(=O)N1CCC[C@H]1C(N)=O)C(C)C [TIP(3-39)] (H-ALADDAAFRERARLLAALERRHWLNSYMHKLLVLDAP-NH2),stimulation of cAMP accumulation at the PTH1R (in words),[3]; HKrk-B7 cells,lack of second messenger formation; also recorded: failed to stimulate cAMP accumulation
PTHrP(1-6)/TIP(9-39): chimera of human PTHrP residues 1-6 and bovine TIP residues 9-39,stimulation of cAMP accumulation at the PTH1R (in words),[3]; HKrk-B7 cells,"None of these peptides, however, stimulated cAMP formation; also recorded: lack of PTH1R activation"
PTHrP(1-20)amide (AVSEHQLLHDKGKSIQDLRR-NH2) [reference compound],inhibition of radioligand binding to the PTH1R (in words),[2]; either radioligand,did not inhibit the binding of either radioligand
"TIP(19-39): TIP39 analog truncated at the amino-terminus, residues 19-39, bovine sequence (ALERRHWLNSYMHKLLVLDAP)",inhibition of radioligand binding to the PTH1R (in words),[2]; either radioligand,did not inhibit the binding of either radioligand; also recorded: no detectable binding
same,stimulation of cAMP accumulation at the PTH1R (in words),[3]; HKrk-B7 cells,lack of second messenger formation
"TIP(23-39): TIP39 analog truncated at the amino-terminus, residues 23-39, bovine sequence (RHWLNSYMHKLLVLDAP)",inhibition of radioligand binding to the PTH1R (in words),[2]; either radioligand,did not inhibit the binding of either radioligand; also recorded: no detectable binding
same,increase in cAMP accumulation over basal,"[3]; HKrk-B7 cells, high molar concentrations",~2 fold over basal
[Ile^7]TIP(1-39): TIP(1-39) having Asp7 replaced by the corresponding isoleucine of PTH (SLALADIAAFRERARLLAALERRHWLNSYMHKLLVLDAP),stimulation of cAMP accumulation at the PTH1R (in words),[3]; HKrk-B7 cells,"None of these peptides, however, stimulated cAMP formation; also recorded: no activation of the PTH1R"
SVSEIQLMHNLGKHLNSMERVEWLRKKLQDVHNY (not fully specified (C-terminus)) [[Tyr^34] human PTH(1-34)amide],"EC50 of cAMP accumulation, SaOS-2 cells",[4],0.3 nM
H-AVSEHQLLHDKGKSIQDLRRRHWLNSYMHKLLVLDAP-NH2 (also called PTHrP/TIP chimera) [PTHrP(1-20)/TIP(23-39)],"EC50 of cAMP accumulation, HKrk-B7 cells",[4],1.4 nM
same,"EC50 of cAMP accumulation, SaOS-2 cells",[4],0.38 nM
same,IC50,[5],11 nM
same,IC50,[6],31 nM
